In test [1] the target is native HIV-1 BaL envelope trimers on the surface of persistently infected human T cells (PM1) (HIV-1 BaL).
Test [2] has the same target. The test can be described thus: flow cytometry on infected PM1 cells pre-incubated with control buffer, PE anti-human IgG; panel header 'PM1 HT-pg9 25'. (A flow cytometer gives signals particle by particle.)
Test [3] has the same target. In words: flow cytometry on infected PM1 cells pre-incubated with sCD4 5 µg/ml (competitor, two-domain by the panel header) before PG9.
For test [4], the target named is BaL Pro 2.0 (HIV-1 BaL gp160 with a proline inserted between Tyr 173 and Ala 174) on HeLa cells (HIV-1 BaL).
For test [5], the target named is wild-type full-length HIV-1 BaL envelope glycoprotein gp160 expressed on the surface of HeLa cells (untreated) (HIV-1 BaL).
Test [6] has as its target ΔV1V2.

In test [1], “monoclonal antibody PG9 (directed to the α-helix-containing region of V2; trimer-preferring)” came in with an MFI of 2220. In test [2], this substance yielded a Mean fluorescence intensity (MFI) of 5210. Further, the change of the MFI with sCD4 in test [3] is -58%.

As to NC human, the Geom. Mean, Comp-PE-A in test [4] was determined as 129; in test [5], 139; in test [6], 152.

Regarding antibody 48d (CD4-induced epitope), the values for the Geom. Mean, Comp-PE-A in test [4], in test [5] and in test [6] were 244, 484 and 240, respectively.

The record behind these values is patent US20150313990A1.
